Measured values: patent US20140004106A1

Assays:
[1] = molecular target: 28mer peptide of the CXCR5 antigen; experiment: Potency (Antigen ELISA); stored -20°C, 3 months
[2] = molecular target: 28mer peptide of the CXCR5 antigen; experiment: Antigen-ELISA; TRIS 10 mM pH 7.5, after 1 week at +40°C
[3] = molecular target: 28mer peptide of the CXCR5 antigen; experiment: Antigen-ELISA; PBS 155 mM, polyethylene high density, 24 h +40°C
[4] = molecular target: 28mer peptide of the CXCR5 antigen; experiment: Antigen-ELISA; PBS 155 mM, clear glass type I as T0, 24 h
[5] = molecular target: 28mer peptide of the CXCR5 antigen; experiment: Antigen-ELISA; standard run with LA_09_27A, T0
[6] = molecular target: 28mer peptide of the CXCR5 antigen; experiment: ELISA potency (binding); 100 mg/mL, Lysine (30) + NaCl (2), 7 days at 40°C
[7] = molecular target: 28mer peptide of the CXCR5 antigen; experiment: Antigen-ELISA; PB 5 mM pH 6.50, after 1 week at +40°C
[8] = molecular target: 28mer peptide of the CXCR5 antigen; experiment: Antigen-ELISA; Citrate 10 mM pH 5.00, after mechanical stress 350 rpm 2.5 h
[9] = molecular target: 28mer peptide of the CXCR5 antigen; experiment: Antigen-ELISA; Glycine 10 mM pH 7, after 1 week at +40°C
[10] = molecular target: 28mer peptide of the CXCR5 antigen; experiment: Antigen-ELISA; Histidine 10 mM pH 5.5, T0
[11] = molecular target: 28mer peptide of the CXCR5 antigen; experiment: Antigen-ELISA; PBS 155 mM pH 7.50, after 1 week at +40°C
[12] = molecular target: 28mer peptide of the CXCR5 antigen; experiment: ELISA potency (binding); 100 mg/mL, Glycine (20) + Mannitol (15), T zero
[13] = molecular target: 28mer peptide of the CXCR5 antigen; experiment: ELISA potency (binding); 100 mg/mL, Trehalose (60) + NaCl (2), 7 days at 40°C
[14] = molecular target: 28mer peptide of the CXCR5 antigen; experiment: Antigen-ELISA; acetate 10 mM prototype B, T0
[15] = molecular target: 28mer peptide of the CXCR5 antigen; experiment: Antigen-ELISA; PBS 155 mM, polypropylene, 24 h +40°C
[16] = molecular target: 28mer peptide of the CXCR5 antigen; experiment: Antigen-ELISA; PBS 155 mM, light stress, 24 h
[17] = molecular target: 28mer peptide of the CXCR5 antigen; experiment: Potency (Antigen ELISA); stored -20°C, 12 months
[18] = molecular target: 28mer peptide of the CXCR5 antigen; experiment: Antigen-ELISA; PB 5 mM pH 6.50, after mechanical stress 350 rpm 2.5 h
[19] = molecular target: 28mer peptide of the CXCR5 antigen; experiment: ELISA potency (binding); 100 mg/mL, Sucrose (60) + Mannitol (15), T zero
[20] = molecular target: 28mer peptide of the CXCR5 antigen; experiment: Antigen-ELISA; Succinate 10 mM pH 5.00, after 1 week at +40°C
[21] = molecular target: 28mer peptide of the CXCR5 antigen; experiment: Potency (Antigen ELISA); stored +5°C, initial
[22] = molecular target: 28mer peptide of the CXCR5 antigen; experiment: Antigen-ELISA; standard run with LA_09_27C, T0
[23] = molecular target: 28mer peptide of the CXCR5 antigen; experiment: Potency (Antigen ELISA); stored +5°C, 1 month
[24] = molecular target: 28mer peptide of the CXCR5 antigen; experiment: Antigen-ELISA; standard run with LA_09_27B, T0
[25] = molecular target: 28mer peptide of the CXCR5 antigen; experiment: ELISA potency (binding); 100 mg/mL, Arginine (20) + Mannitol (15), T zero
[26] = molecular target: 28mer peptide of the CXCR5 antigen; experiment: Potency (Antigen ELISA); stored +25°C, 1 month
[27] = molecular target: 28mer peptide of the CXCR5 antigen; experiment: Antigen-ELISA; PB 10 mM pH 7.00, after 1 week at +40°C
[28] = molecular target: 28mer peptide of the CXCR5 antigen; experiment: ELISA potency (binding); 100 mg/mL, Trehalose (60) + Mannitol (15), 7 days at 40°C
[29] = molecular target: 28mer peptide of the CXCR5 antigen; experiment: Antigen-ELISA; standard run with LA_09_004_6
[30] = molecular target: 28mer peptide of the CXCR5 antigen; experiment: Antigen-ELISA; TRIS 10 mM pH 8.5, after 1 week at +40°C
[31] = molecular target: 28mer peptide of the CXCR5 antigen; experiment: Antigen-ELISA; Citrate 10 mM pH 6.00, T0
[32] = molecular target: 28mer peptide of the CXCR5 antigen; experiment: Potency (Antigen ELISA); stored +5°C, 6 months
[33] = molecular target: 28mer peptide of the CXCR5 antigen; experiment: Antigen-ELISA; Citrate 10 mM pH 6.00, after 1 week at +40°C
[34] = molecular target: 28mer peptide of the CXCR5 antigen; experiment: Antigen-ELISA; standard run with LA_09_004_4
[35] = molecular target: 28mer peptide of the CXCR5 antigen; experiment: Ag-ELISA; DS in PBS, release
[36] = molecular target: 28mer peptide of the CXCR5 antigen; experiment: Antigen-ELISA; PB 10 mM pH 6.50, after mechanical stress 350 rpm 2.5 h
[37] = molecular target: 28mer peptide of the CXCR5 antigen; experiment: Antigen-ELISA; PBS 155 mM pH 7.00, after mechanical stress 350 rpm 2.5 h
[38] = molecular target: 28mer peptide of the CXCR5 antigen; experiment: Antigen-ELISA; standard run with LA_09_28D, T0
[39] = molecular target: 28mer peptide of the CXCR5 antigen; experiment: Antigen-ELISA; Succinate 10 mM pH 6.00, T0
[40] = molecular target: 28mer peptide of the CXCR5 antigen; experiment: Antigen-ELISA; PB 5 mM pH 7.00, after mechanical stress 350 rpm 2.5 h
[41] = molecular target: 28mer peptide of the CXCR5 antigen; experiment: Antigen-ELISA; PB 5 mM pH 6.50, T0
[42] = molecular target: 28mer peptide of the CXCR5 antigen; experiment: Antigen-ELISA; Succinate 10 mM pH 6.00, after 1 week at +40°C
[43] = molecular target: 28mer peptide of the CXCR5 antigen; experiment: Antigen-ELISA; PBS 155 mM, 1 h purged with air, 24 h

EC50 value (in comparison to reference) [1]: 84%
EC50 % [2]: 184%
EC50 % [3]: 157%
EC50 % [4]: 62.3%
EC50 % [5]: 100%
rel. potency [%] [6]: 264%
EC50 % [7]: 77%
EC50 % [8]: 99%
EC50 % [9]: 65%
EC50 % [10]: 57%
EC50 % [11]: 52%
rel. potency [%] [12]: 111%
rel. potency [%] [13]: 191%
EC50 % [14]: 112%
EC50 % [15]: 107%
EC50 % [16]: 72.3%
EC50 value (in comparison to reference) [17]: 96%
EC50 % [18]: 150%
rel. potency [%] [19]: 205%
EC50 % [20]: 157%
EC50 value (in comparison to reference) [21]: 75%
EC50 % [22]: 100%
EC50 value (in comparison to reference) [23]: 105%
EC50 % [24]: 100%
rel. potency [%] [25]: 117%
EC50 value (in comparison to reference) [26]: 121%
EC50 % [27]: 109%
rel. potency [%] [28]: 266%
EC50 % [29]: 100%
EC50 % [30]: 237%
EC50 % [31]: 52%
EC50 value (in comparison to reference) [32]: 97%
EC50 % [33]: 98%
EC50 % [34]: 100%
EC50 % [35]: 100%
EC50 % [36]: 89.4%
EC50 % [37]: 50%
EC50 % [38]: 100%
EC50 % [39]: 112%
EC50 % [40]: 110%
EC50 % [41]: 110%
EC50 % [42]: 126%
EC50 % [43]: 84.3%
B1: Lead CXCR5 Antibody (humanized IgG4 anti-CXCR5 antibody) (antibody, V domains shown)
VH: QVQLKESGPGLVAPSESLSITCTVSGFSLIDYGVNWIRQPPGKGLEWLGVIWGDGTTYYNPSLKSRLSISKDNSKSQVFLKVTSLTTDDTAMYYCARIVYWGQGTLVTVSA
VL: DIVMTQAAPSVAVTPGASVSISCRSSKSLLHSSGKTYLYWFLQRPGQSPQLLIYRLSSLASGVPDRFSGSGSGTAFTLRISRVEAEDVGVYYCMQHLEYPYTFGGGTKLEIKR
